Laboratory results as given in paper PMC10206775.

Key:
[1] = molecular target: BmTFF3 (β-subunit of βγ-CAT) (Bombina maxima (endogenous in skin secretions))
[2] = molecular target: Bombina maxima IgG Fc-binding protein (FCGBP) (Bombina maxima (endogenous in skin secretions)); assay: BLI; FCGBP (10 μg/ml, 0.01 M sodium acetate pH 4.0) amine-coupled to AR2G biosensors; βγ-CAT 1000-31.25 nM in PBS, association 300 s, dissociation 180 s; global fit, 1:1 binding model

Question: “BmALP1 (α-subunit of βγ-CAT) (natural protein)” was tested. Which dye release from calcein liposomes (fluorescence at 518 nm, % of maximum) by BmALP1 polymer (50 nM) with BmTFF3 (200 nM) and FCGBP at 25, 50 and 150 nM [1] did it give?
Answer: The dye release from calcein liposomes (fluorescence at 518 nm, % of maximum) by BmALP1 polymer (50 nM) with BmTFF3 (200 nM) and FCGBP at 25, 50 and 150 nM was 76.8%.

Question: How did the Kd [2] turn out when βγ-CAT complex (BmALP1 and BmTFF3) was run?
Answer: The Kd was 21.2 nM.
